On the set-up of this data set: species or system women. The note with it: in vivo. The method, then:
Elevated levels of calprotectin in BV and in L iners-dominated vaginal microbiomes sequester manganese and zinc, preventing growth of L crispatus its maintenance of a healthy vaginal microbiome. […] Six women each received 3 doses of formulation Z2 separated by 48 hours. Vaginal fluid swabs were collected at t=0, 2, 4, 8, 12, 18, 24, 30, 36, and 42 hours post dose and vaginal fluid concentrations of lactoferrin and mannitol were determined. Average concentrations for the combined 18 dose administrations were obtained based on calculation of Area Under Curve for the locally estimated scatterplot smoothing (Loess) profile of lactoferrin and mannitol concentrations assuming 6 mL volume of distribution. The average concentration of lactoferrin was 33 mg/mL and the average concentrations of mannitol was 20 mg/mL. Average concentrations of both substances correspond to 0.1 fraction or 10% of the administered dose, 300 mg lactoferrin and 195 mg mannitol per Z2 tablet respectively. The 0.1 factor was used to estimate the expected average elemental Mn concentration based on the initial dose per tablet.

B1: lactoferrin (protein, UniProt P24627 20-708, looked up)
Lactotransferrin: APRKNVRWCTISQPEWFKCRRWQWRMKKLGAPSITCVRRAFALECIRAIAEKKADAVTLDGGMVFEAGRDPYKLRPVAAEIYGTKESPQTHYYAVAVVKKGSNFQLDQLQGRKSCHTGLGRSAGWIIPMGILRPYLSWTESLEPLQGAVAKFFSASCVPCIDRQAYPNLCQLCKGEGENQCACSSREPYFGYSGAFKCLQDGAGDVAFVKETTVFENLPEKADRDQYELLCLNNSRAPVDAFKECHLAQVPSHAVVARSVDGKEDLIWKLLSKAQEKFGKNKSRSFQLFGSPPGQRDLLFKDSALGFLRIPSKVDSALYLGSRYLTTLKNLRETAEEVKARYTRVVWCAVGPEEQKKCQQWSQQSGQNVTCATASTTDDCIVLVLKGEADALNLDGGYIYTAGKCGLVPVLAENRKSSKHSSLDCVLRPTEGYLAVAVVKKANEGLTWNSLKDKKSCHTAVDRTAGWNIPMGLIVNQTGSCAFDEFFSQSCAPGADPKSRLCALCAGDDQGLDKCVPNSKEKYYGYTGAFRCLAEDVGDVAFVKNDTVWENTNGESTADWAKNLNREDFRLLCLDGTRKPVTEAQSCHLAVAPNHAVVSRSDRAAHVKQVLLHQQALFGKNGKNCPDKFCLFKSETKNLLFNDNTECLAKLGGRPTYEEYLGTEYVTAIANLKKCSTSPLLEACAFLTR
On to B1, for which the “average concentration as fraction of the administered dose” value stood at 10%.

Source of the values: US20250127807A1, “TREATMENT OF VAGINAL DYSBIOTIC CONDITIONS WITH ASSOCIATED ELEVATED VAGINAL CALPROTECTIN” (priority 2022, published 2025).
